The source of these data is the nanobody polyreactivity screen of Harvey et al. (2022).

The data set in a line: yeast display, Sf9 membrane polyspecificity reagent, FACS + sequencing; frameworks hold sequencing errors. A digest of the protocol:
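Using colony PCR, genes from sorted yeast display clones were amplified, then sequenced on MiSeq at 2 × 250 and filtered by CDR length. The clones had been stained with 10% biotinylated, detergent-solubilized Sf9 membrane reagent for 1 hour at 4 °C and sorted by FACS into low and high (top ~1%) gates on anti-HA and streptavidin fluorescence. Polyreactivity labels come from the gate of origin.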
In the case of “QVQIVETGGGLVQAGGSLRLSCDASGSIFPDYAKGWYRQAPRKERELLASISWDGGSTYYADSVKGRFTISRDNAKNTVYLQMNSLKPEDTAVYYCATEWLVGGGVTVDYWGQGTQVSVSS”, the “polyreactivity (PSR sort gate)” value is on record as “low polyreactivity”. As to “QVQLVESGGGLVQAGGSLRLSCAASGSTFYPYAMGWYRQAPGKERELVAAITYSGGSTYYADSVKGRFTISRDNAKNTVYLQMNSLKPDDTAVYYCATPYFSTPRVRGFDYWGQGTQVTVSS”, the “polyreactivity (PSR sort gate)” value was “low polyreactivity”. In the case of “QVQLVESGGGLVQAGGSLRLSCAASGIFSRYAIGWYRQAPGKERELVAAISSGDSTNYADSVKGRFTISRDNAKNTVYLQMNSLKPEDTAVYYCATERSHLATGQGYYYVQTFYYWGQGTQVTVSS”, the “polyreactivity (PSR sort gate)” value is recorded as “low polyreactivity”.

For “QVQLVESGGGLVQAGGSLRLSCAASGSTFGGNAMGWYRQAPGKERELVAAISSSGGSTYYADSVKGRFTISRDNAKNTVYLLMNSLKPEDTAVYYCNADDGYGQVHSISTYEMDYWGQGTQVTVSS”, the “polyreactivity (PSR sort gate)” value was “low polyreactivity”. The result for “QVQLVESGGGLVQAGGSLRLSCASSGIIYNQNTMGWYRQAPGKERELVAAITFSGGRTSYADSVKGRFTISRDNAKNTFYLQMNSLKPEDSAVYYCNKALWGLYGYWGHGTQVTVSS” reads “low polyreactivity”.

Consider “QVQLVESGGGLVQAGGSLRLSCAASGRTFGQNALGWYRQAPGKERELVASIRSGGITDYADSVKGRFTISRDNAKNTVYLQMNSLKPEDTAVYYCNAEGVWWSTRYDSWGQGTQVTVSS”, for which the “polyreactivity (PSR sort gate)” value is given as “low polyreactivity”. As to “QVQLVESGGGLVQAGGSLRLSCAASGSTFYVNAMGWYRQAPGKERELVAAITKSGGNTYYADSVKGRFTISRDNAKNTVYLQMNSLKPEDTAVYYCAKKYPRDMDYWGQGTQVTVSS”, the “polyreactivity (PSR sort gate)” value is “high polyreactivity”. Regarding “QVQLVESWGGLVQAGGSLRLSCAASGSTFDYNAMGWYRQAPGKERELVAAITSTGGNTYYADSVKGRFTISRDNAKNTVYLQMISMKPEDTAVYYCNKDVARYPYGKFDYWGQGTQVTVSS”, the “polyreactivity (PSR sort gate)” value was “low polyreactivity”. As to “QVQLVESGGGLVQAGGSLRLSCAASGRIFYSNAMGWYRQAPGKERELVAAITGSGGRTHYADSVKGRFTISRDNAKNTVYLQMNSLKPEDTAVYYCAKDGYFPEFDYWGQGTKVTVSS”, the “polyreactivity (PSR sort gate)” value is “high polyreactivity”. In the case of “QVQLVDSGGGLVHAGGSLRLSCHASGRTFRGNAMGWYRQAPGKESELVAAITRRTASTYYADSVKGRFTISRDNAKNTVYLQMNSLKPEDTAVYDCAADSYMKRPYYAGYYYWGQGTQVTVSS”, the “polyreactivity (PSR sort gate)” value is reported as “high polyreactivity”. The entry for “QVQLVESGGGLVQAGRSLRLSCAASGFIFRYYAMGWYRQAPGKETELVAAIRGGGSTYYADSVKGRFTISRDNAKNTVYLQMKSLNPEDTAVYYCAVRWVSRFGISSYDYWGQGTQVTVSS” is “high polyreactivity”; for “QVQLVESGGRLVHAGGSLRLSCAASGFTFSDYAMGGYRQEPGKERELVAAISTRGSSTYYADSVKGLFTISRDNEKTTVYLEMNSLKPEDTAVYYCNAVGSYSGYYYWGQGNQVTVSS” it is “high polyreactivity”. As to “QVQLVESGGGLVQAGGSLRLSCAASGRTFVIYAMGWYRQAPGKEREFVAAISRSGGSTYYADSVKGRFTISRDNAKNTVYLQMNSLKPEDTAVYYCNTRTPYWVKSDYWGQGTQVTVSS”, the “polyreactivity (PSR sort gate)” value is “low polyreactivity”. For the sequence “QVQLGESGGGLVQAGGSLRLSGAASGRTFNDYTMGWYRPAPGKERELVAAISSSGVLTYYADSVKGRFTISRDNAKYTVYLQMNSLKPEDTAVDYAKRAGYDRRWTYDYRGQGTQVTVSS”, the “polyreactivity (PSR sort gate)” value is recorded as “high polyreactivity”. As to “QVQLVESGGGLVQAGGSLRLSCAASGSTFAEYAMGWYRQAPGKERELVAAIRWSGGSTSYADSVKGRFTISRDNAKNTVYLQMNSLKPEDTAVYYCAAERFWYDGEVKLYVLSYYWGQGTQVTVSS”, the “polyreactivity (PSR sort gate)” value was “low polyreactivity”. “QVQLVESGGGLVQEGGRLRLSCAASGRIISINAMGWYRQAPGKERELVAAITRGGTTYADSVKGRFTISRDIAKNTVYLHMNRLKPEDPAVYYCNARTGRSPSGFRYWGQGTQVTVSS”: the “polyreactivity (PSR sort gate)” value is recorded as “high polyreactivity”.

For “QVQLVESGGGLVHAGGILSLSSAASGFTIGYYSMGWYRQAPGKERELVAAINWSGGRTYYGDSVKGRFTISRDIAKNTVYFQMTSLKPEDTAVYYCAADPNKGRQMYYWGQGSQVTVSS”, the “polyreactivity (PSR sort gate)” value is reported as “high polyreactivity”. With “QVQLVESGGGLVQAGGSLRLSCAASGRIFVNYAMGWYRQAPGKERELVAAITSSGGSTYYADSVKGRFTISRDNAKNTVYLQMNSLKPEDTAVYYCAARWGRGLEFDYWGQGTQVTVSS”, the “polyreactivity (PSR sort gate)” value was “high polyreactivity”. For “QVQLVESGGGLVQAGGSLRLSCAASGSTFWANAMGWYRQAPGKERELVAAITTSGASTYYADSVKGRFTISRDNAKNTVYLQMNSLKPEDTAVYYCAADYDSYYWYNYWGQGTQVTVSS”, the “polyreactivity (PSR sort gate)” value is listed as “low polyreactivity”. Turning to “QVQLVESGGGLVQAGGSLRLSCAASGRTFSAYVMGWYRQAPGKEREFVATIRRTGSTYYADSVKGRFTISRDNAKNTVYLQMNSLKPEDTAVYYCNRGSFPSVQGSYPGYGYWGQGTQVTVSS”, the “polyreactivity (PSR sort gate)” value was “high polyreactivity”.

Turning to “QVQLVESGGGLVQAGGSLRLSCAAPGSIFYQNAMGGYRQAPGKERELVAAISRSGGSTYYADSVKGRFTISRDNAKNTVYLQMNSLKPEDTAVYYCAARISRQRSYSRDYWGQGTQVTVSS”, the “polyreactivity (PSR sort gate)” value is “high polyreactivity”. “QVQLVESGGGLVQAVGRLRLSCAASGSTFAIYAMGWYRQAPGKERELVAAITVSGGSTYYADSVKGRFTISRDNAKNTVYLQMNSLKPEDTAVYYCNADWSGWQGWYNYWGQGTQVTVSS”: the “polyreactivity (PSR sort gate)” value is “low polyreactivity”. The entry for “QDQLVESGGGLVQAGGSLRLSCAASGRIIRQYAMGWYRQAPGKERELVAVISAGGARTYYADSVKGRFTISRDNAKNTVYLQMNSLKPEDTAVYYCAVSYPPGAYRRHFRYGYWGQGTQVTVSS” is “high polyreactivity”; for “QVQLVESGGGLVQAGGSLRLSCAASGSNIKYYAMGWYRQAPGKERELVARITSDGGSTFYADSVKGRFTISRDNAKNTVYLQMNSLKPEDTAVYYCNTAYAFRHCWFYPMDYWGQGTQVTVSS” it is “high polyreactivity”; for “QVQLVESGGGLVQAGGSLRLSCAASGYNFYRYAMGWYRQAPGKEMELVATIRSGGSTNYADSVKGRFTISRDNAKNTVYLQMNSLKPEDTAVYYCAKVRGWYDPYTYGYSEYGYWGQGTQVTVSS” it is “low polyreactivity”. On to “QVQLVESGGRLVQAGGSLRLICAASGSIFGHYAMGWYRQAPRKEREFVAAIDWSGGSSYYADSVKGRFTISRDNAKNTVYLQMISLKPEDTAVYYCAARVRERYYWGQGTQVTVSS”, for which the “polyreactivity (PSR sort gate)” value was “high polyreactivity”.

As to “QVQLVESGGGLVQAGGSLRLSSAASGSTFHNYAMRWSRQAPGNEREWVASIRLIGGSTYYADSVKGRFTISRDNAKNTVYLQMNSLKPEDTAVYYCAATSTDRSYLEYDYWGQGTQVTVSS”, the “polyreactivity (PSR sort gate)” value is reported as “low polyreactivity”. “QVQLVESGGGLVQAGGSLRLSCDASGRIFLHYAMRLYRQAPGTERELVAAISRSGGSTYYADSVKGRFTISRDNAKNTVYLQMNSLKPEDTAVYYCAADGPGDYLTLEWYWFTYYYWGQGTQVTVSS”: the “polyreactivity (PSR sort gate)” value is “high polyreactivity”.

Regarding “QVQLVESGGGLVQAGGSLRLICAASGRIFVRNARGLYRQAPGTERELVASISQNGGRTYYADSVKGRFTISRDNAKNTVYLQMNSLKPEDTAVYYCARGRGGSRPGLDYWGQGTQVTVSS”, the “polyreactivity (PSR sort gate)” value is on record as “high polyreactivity”. For the sequence “QVQLVESGGGLVQAGGSLRLSCAASGFTFRTYAMGWSRQAPGKERELVAAITVSGGTYYADSVKGRFTISRDNAKNTVYLQMNSLKPEDTAVYYCAAGYWNDFDWGQGTQVTVSS”, the “polyreactivity (PSR sort gate)” value is recorded as “low polyreactivity”.

Take “QVQHVETGGGLVQAGGSLRLSCAASGIFGYNAMGGYRQAPAKERELVAGITKSGARTYYADSVKGRFTISRDNAKNTVYLQMNSLKPEDTAVYYCKAVGKRFYNDDYWGQGTQVTVSS”: the “polyreactivity (PSR sort gate)” value is “high polyreactivity”. Turning to “QVQLVDSGGGLVQAGGSLRLSCAASGSTFDAYAMGWYRQAPGKERELVAGISSGGSYEYAESVKGRFTISRDNAKNTVYVQMNSLKPEDTAVYYCAADSRQSDYYYQPTKFDYWGQGTQVTVSS”, the “polyreactivity (PSR sort gate)” value was “low polyreactivity”. With “QVQLVESGGGLVQAGGSLRLSCAASGLIFYRYAMGTTRQAPGKERELVATISGGGRTYYADSVKGRFTISRDNAKNTVYLQMNSLKPEDTAVYYCNADRQWYSIGSWEYDYWGQGTQVTVSS”, the “polyreactivity (PSR sort gate)” value is given as “high polyreactivity”. The result for “QVQLVESGGGLVHAGGSLRLSCAASGFILTGYTMGWYRQAPGKEMELVAAISYRGGSTYYADSVKGRFTISRDNAKNTVYLQMNSLKPEDTAVYYCNAVWSNFRLGYDYWGQGTQVTVSS” reads “high polyreactivity”.

As for “QVQLVESGGGLVQAGGSLRLSCAASGYTFPLYAMGLYRQAPGKEWELVADINIGGASTYYADSVKGRFTISRDHAKNTVYLQMNSLKPEDTAVYYCAKEYYDGYFPTFDYDYWGQGTQVTGSS”, the “polyreactivity (PSR sort gate)” value is reported as “low polyreactivity”. Regarding “QVQLVESGGGLVQAGGSLRLSCSASGSTFTWYAMGWYRQATGKERELVADISNGGGSTYYADSVKGRFTISRDNEKNTVYLQINSLKPEDTEVYYCAAESIPYYRYDYWGQGTQVTVSS”, the “polyreactivity (PSR sort gate)” value is given as “low polyreactivity”. The entry for “QVQLVESGGGLVQAGGSLRLSCAASGSIFRRYAMGWYRQAPGKERELVAGITRGGSTYYADSVKGRFTISRDNAKNTVYLQMNSLKPEDTAVYYCNRAARYGEYDYWGQGTQVTVSS” is “high polyreactivity”; for “QVQLVESGGGLVQAGGSLRLSCDASGFISRYAMGWYRQAPGKERELVAAINRSGGRTYYADSVKGRFTISRDNAKNTVYLQMNSLTPEDTAVYYCAALRGRYYGVLGEYWGQCTQVTVSS” it is “high polyreactivity”. Consider “QVQLVESGGGLVQAGGSLRLSGAASGSSFLRNAMGWSRQAPGKERELVATISTGSGRTYYADSVKGRFTISRDNAKNTVYLQMTSLKPEDTAVYYCAASRTLRKHRYEYWGQGTKVTVSS”, for which the “polyreactivity (PSR sort gate)” value is “high polyreactivity”. Regarding “QVQLVESGGGLVQAGGSLRLSCAASGSIFKGNVMGWYRQAPGKERELVAAITWSGGSTYYADSVKGRFTISRDNAKNTVYLQMNSLKPEDTAVYYCNTDRYHRVDFDYWGQGTQVTVSS”, the “polyreactivity (PSR sort gate)” value was “high polyreactivity”. On to “QVQLVESGGGLVQAGGSLRLSCAASRRIFSFNAMGWYRQAPGKDRELVAGSTYGGNTYYADSVKGSFTISRDNAKNTVYLQMNSLKPEDTAVYYCAAVRGGRHDYWGQGTQVTVSS”, for which the “polyreactivity (PSR sort gate)” value is listed as “low polyreactivity”.
